Laboratory results: US20070298997A1, “Compounds useful in treating diabetic microvascular complications and age-related macular degeneration” (priority 2003, published 2007)

What was measured:
[1] = tested on: VEGF; test: Retinal VEGF levels in OIR rats by Western blot; assay type: in vivo, Brown Norway rats; settings: intravitreal injection of 25 μg, P<0.01
Description: The effect of kallistatin on VEGF expression was also examined in vivo. After intravitreal injection of 25 μg kallistatin, VEGF levels were determined in the retina with OIR.
Induction of retinal neovascularization and intravitreal injection of kallistatin: Retinal neovascularization was induced as described by Smith et al. (Smith et al., 1994) with some modifications. Briefly, newborn pigmented Brown Norway rats at postnatal day 7 (P7) were exposed to hyperoxia (75% O2) for 5 days and then normoxia. Animals were anesthetized, and kallistatin was injected into the vitreous of the right eye through the pars plana using a glass capillary. The left eye received the same volume of PBS as the control. After injection, the animals were kept in normoxia for another 5 days for further analyses.
Western blot analysis: One hundred micrograms of total protein were used for Western blot analysis of VEGF using an ECL detection kit (Amersham International plc, Piscataway, N.J.) (Gao et al., 2001). The same membrane was stripped and re-blotted with an antibody specific to β-actin. VEGF levels were normalized by β-actin.

[2] = tested on: vascular permeability in the retina, iris and choroid; test: Vascular permeability by Evans blue leakage in OIR rats; assay type: in vivo, Brown Norway rats
Description: Next, the effect of kallistatin on vascular permeability was determined. At P14, two days after the rats were returned to normoxia, the OIR rats received an intravitreal injection of 3 μl of kallistatin of concentrations of 2.4, 4.8 and 9.6 mg/ml in the right eye (4 animals per dose group), and the same volume of PBS in the left. Two days after the kallistatin injection (P16), vascular permeability was measured by the Evans blue leakage method. […] Kallistatin injection decreased vascular permeability in a dose-dependent manner in the retina, iris and choroid of the hyperoxia-treated rats (FIG. 6).
Measurement of vascular permeability: Vascular permeability was quantified by measuring albumin leakage from blood vessels into the retina, iris and choroid using Evans blue following a documented protocol (Xu et al., 2001) with minor modifications. Evans blue dye (Sigma, St. Louis, Mo.) was dissolved in normal saline (30 mg/ml), sonicated for 5 min and filtered through a 0.45-μm filter (Millipore, Bedford, Mass.). The rats were anesthetized, and Evans blue (30 mg/kg) was injected over 10 seconds through the femoral vein using a glass capillary under microscopic inspection. Evans blue non-covalently binds to plasma albumin in the blood stream (Radius et al., 1980). Immediately after Evans blue infusion, the rats turned visibly blue, confirming their uptake and distribution of the dye. The rats were kept on a warm pad for 2 h to ensure the complete circulation of the dye. Then the chest cavity was opened, and the rats were perfused via the left ventricle with 1% paraformaldehyde in citrate buffer (pH=4.2) which was pre-warmed to 37° C. to prevent vasoconstriction. The perfusion lasted 2 min under the physiological pressure of 120 mmHg to clear the dye from the vessel. Immediately after perfusion, the eyes were enucleated and the retina, iris and choroid were carefully dissected under an operating microscope. Evans blue dye was extracted by incubating each sample in 150 μl formamide for 18 h at 70° C. The extract was centrifuged (TL; Beckman) at 70,000 rpm (Rotor type: TLA 100.3) for 20 min at 4° C. Absorbance was measured using 100 μl of the supernatant at 620 nm. The concentration of Evans blue in the extracts was calculated from a standard curve of Evans blue in formamide and normalized by the total protein concentration in each sample. Results were expressed in micrograms of Evans blue per milligrams of total protein content.

[3] = tested on: TGF-β; test: TGF-β-induced fibronectin secretion in HMC (ELISA); assay type: cell-based, human; settings: 5 ng/ml TGF-β, 3 days
Description: FIG. 12 illustrates that kallistatin blocks TGF-β-induced fibronectin over-production in HMC. HMC were treated with 5 ng/ml TGF-β without or with different concentrations of kallistatin for 3 days. Fibronectin secreted into the medium was measured by ELISA (mean±SD, n=3). TGF-β induced significant over-production of fibronectin.
Kallistatin blocks the function of TGF-β, a major pathogenic factor in DN. TGF-β is a major inflammatory and fibrosis mediator. It plays a major role in the development of DN. To explore the role of kallistatin in DN, the effect of kallistatin in blocking TGF-β activity in kidney cells was determined. HMC were treated with 5 ng/ml TGF-β for 3 days without or with different concentrations of kallistatin.

[4] = tested on: VEGF; test: VEGF in RCEC cell lysate by Western blot; assay type: cell-based, bovine; settings: RCEC under hypoxia, 24 h, 40-640 nM
Description: FIG. 9 illustrates down-regulation of VEGF expression by kallistatin. As increased VEGF levels in the retina and vitreous play a key role in the development of retinal neovascularization, the effect of kallistatin on the expression of VEGF in cultured RCEC was determined. VEGF secreted into the conditioned medium was measured by VEGF ELISA and normalized by total protein concentration in the medium.
Measurement of VEGF in the conditioned medium of RCEC by ELISA: RCEC were seeded in T75 flasks in endothelial cell growth medium and cultured in a CO2 incubator to reach 60-70% confluency. The cells were washed 3 times with PBS and the growth medium replaced by a serum-free medium containing bFGF (GIBCO-BRL, Gaithersburg, Md.). Kallistatin was added to the medium to various concentrations and incubated with the cells for 24 h under normoxia or hypoxia (in a chamber that was perfused with a mixture of 95% N2+5% CO2). The conditioned medium was harvested for VEGF ELISA and the cells were used for Western blot analysis. The conditioned medium was centrifuged and the protein concentration in the supernatant was measured with BioRad protein assay. VEGF concentration was measured using a VEGF ELISA kit (R& D systems, Minneapolis, Minn.) and normalized by total protein concentration in the medium. […]

[5] = 3 μl of 4.8 mg/ml intravitreal, P<0.05
[6] = 3 μl of 9.6 mg/ml intravitreal at P14, measured P16, P<0.01

B1: kallistatin: Recombinant His-tagged rat kallistatin (serpin, SEQ ID NO:1) expressed in E. coli and affinity-purified (protein, listed as Homo sapiens)
chain: DGILGRDTLPHEDQGKGRQLHSLTLASINTDFTLSLYKKLALRNPDKNVVFSPLSISAALAILSLGAKDSTMEEILEVLKFNLTEITEEEIHHQGFGHLLQRLSQPEDQAEINTGSALFIDKEQPILSEFQEKTRALYQAEAFVADFKQCNEAKKFINDYVSNQTQGKIAELFSELDERTSMVLVNYLLFKGKWKVPFNPNDTFESEFYLDEKRSVKVPMMKIKDLTTPYIRDEELSCSVLELKYTGNASALFILPDQGKMQQVESSLQPETLKKWKDSLRPRIISELRMPKFSISTDYNLEEVLPELGIRKIFSQQADLSRITGTKNLHVSQVVHKAVLDVDETGTEGAAATAVTAALKSLPQTIPPLNFNRPFMLVITDNNGQSVFFMGKVTNPM
modifications: His tag
In the case of B1, the “retinal VEGF levels, % of the control” value [1] is reported as ~35 % of the control, the “vascular permeability, choroid” value ([2]; 3 μl of 2.4 mg/ml intravitreal) is reported as “did not show any significant effect” and the “vascular permeability, iris” value ([2]; 3 μl of 2.4 mg/ml intravitreal) is reported as “did not show any significant effect”. For the same molecule, the “vascular permeability, retina” value ([2]; 3 μl of 2.4 mg/ml intravitreal) was “did not show any significant effect”, the “vascular leakage, choroid” value ([2]; 3 μl of 4.8 mg/ml intravitreal) was “not in the choroid” and the “vascular leakage, iris” value [2, 5] was “significantly decreased vascular leakage”. For the same molecule, the “vascular leakage, retina” value [2, 5] was “significantly decreased vascular leakage”, the “vascular permeability, iris” value [2, 6] was “significant decrease in permeability” and the “vascular permeability, retina” value [2, 6] was “significant decrease in permeability”. For the same molecule, the “vascular permeability, choroid” value ([2]; 3 μl of 9.6 mg/ml intravitreal at P14, measured P16, P<0.05) was “significant decrease in permeability”, the TGF-β-induced fibronectin secretion [3] was “blocked the TGF-β-induced fibronectin secretion in a concentration-dependent manner” and the TGF-β-induced fibronectin secretion ([3]; listed as Kallistatin) was “blocked the TGF-β-induced fibronectin production in a concentration-dependent manner”. For the same molecule, the “VEGF levels in the cell lysate” value [4] was “reduced VEGF levels in the cell lysate of RCEC in a concentration-dependent manner”.
